Values of other authors in publication PMC10813780.

Molecular target: TLR4 (Homo sapiens) (UniProt O00206)
UniProt O00206, sequence (O00206 24-839): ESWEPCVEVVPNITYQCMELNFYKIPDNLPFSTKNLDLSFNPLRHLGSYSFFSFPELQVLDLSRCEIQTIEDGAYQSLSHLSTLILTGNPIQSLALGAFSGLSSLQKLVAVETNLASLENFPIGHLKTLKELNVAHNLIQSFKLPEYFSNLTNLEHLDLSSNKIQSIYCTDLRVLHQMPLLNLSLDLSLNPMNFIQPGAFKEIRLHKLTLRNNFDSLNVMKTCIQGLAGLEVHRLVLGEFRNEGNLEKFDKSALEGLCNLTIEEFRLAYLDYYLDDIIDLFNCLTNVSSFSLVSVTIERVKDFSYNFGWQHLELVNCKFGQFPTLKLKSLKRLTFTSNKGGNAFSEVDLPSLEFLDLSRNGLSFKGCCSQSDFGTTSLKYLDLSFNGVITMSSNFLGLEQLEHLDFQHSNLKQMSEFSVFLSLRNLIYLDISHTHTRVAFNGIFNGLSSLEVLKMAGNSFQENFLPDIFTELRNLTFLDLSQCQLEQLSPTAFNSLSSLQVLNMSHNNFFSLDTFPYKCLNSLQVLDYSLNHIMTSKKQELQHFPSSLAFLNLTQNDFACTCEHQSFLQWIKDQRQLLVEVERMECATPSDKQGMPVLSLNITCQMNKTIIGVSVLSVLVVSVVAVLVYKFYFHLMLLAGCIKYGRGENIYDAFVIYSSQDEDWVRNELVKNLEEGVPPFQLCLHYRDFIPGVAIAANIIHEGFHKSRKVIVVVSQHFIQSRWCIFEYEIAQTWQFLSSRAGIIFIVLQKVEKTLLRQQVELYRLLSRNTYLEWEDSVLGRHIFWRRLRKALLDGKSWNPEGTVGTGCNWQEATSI

- Kd: 430 nM
Substance: API5 (from UniProt Q9BZZ5)
